According to publication PMC3542976:
Read-outs that look alike come from different tables or passages of the source.

B1: r(TSA3)/drd(BS) A3-bulged chimeric duplex (mixed)
RNA: GGGAGAGGCAAGUCGUUCGGUCGCGUUCGCAAAUGUCGUCGCGUCUUGUAUGCCACUGUACCC
DNA: GGGTACAGTGGCATACAAGACGCGACGACAGCGAACGCGACCGAACGACTTGCCTCTCCC
modifications: strand 2 is DNA22-RNA16-DNA22 (RNA at 23-38)
B2: r(TSA6)/drd(BS) A6-bulged chimeric duplex (mixed)
RNA: GGGAGAGGCAAGUCGUUCGGUCGCGUUCGCAAAAAAUGUCGUCGCGUCUUGUAUGCCACUGUACCC
DNA: B1 DNA
modifications: strand 2 is DNA22-RNA16-DNA22 (RNA at 23-38)

Experiments:
PKR K296R full length = PKR K296R full length (UniProt P19525 1-551, K296R); experiment: EMSA
PKR K296R full length, sequence (P19525 whole entry K296R): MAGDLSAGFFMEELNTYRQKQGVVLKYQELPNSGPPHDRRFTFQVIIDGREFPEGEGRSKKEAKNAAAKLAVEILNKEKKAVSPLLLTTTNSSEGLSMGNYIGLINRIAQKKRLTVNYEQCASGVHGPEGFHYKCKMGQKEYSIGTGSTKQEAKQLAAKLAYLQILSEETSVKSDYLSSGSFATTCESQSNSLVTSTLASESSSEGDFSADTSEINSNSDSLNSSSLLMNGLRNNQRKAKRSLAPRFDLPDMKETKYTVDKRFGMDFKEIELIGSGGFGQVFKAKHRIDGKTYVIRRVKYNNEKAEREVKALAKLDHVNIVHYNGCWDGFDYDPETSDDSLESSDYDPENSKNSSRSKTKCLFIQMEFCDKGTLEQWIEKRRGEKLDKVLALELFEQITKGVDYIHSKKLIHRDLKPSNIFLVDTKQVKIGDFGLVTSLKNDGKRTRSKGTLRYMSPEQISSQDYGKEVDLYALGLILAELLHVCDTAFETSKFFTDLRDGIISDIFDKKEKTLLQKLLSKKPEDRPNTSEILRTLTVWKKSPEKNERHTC

p20 (dsRBD of PKR) [1] = biological target: T1, p20 (dsRBD of PKR) (UniProt P19525 1-184); experiment: SAXS
T1 sequence (P19525 1-184): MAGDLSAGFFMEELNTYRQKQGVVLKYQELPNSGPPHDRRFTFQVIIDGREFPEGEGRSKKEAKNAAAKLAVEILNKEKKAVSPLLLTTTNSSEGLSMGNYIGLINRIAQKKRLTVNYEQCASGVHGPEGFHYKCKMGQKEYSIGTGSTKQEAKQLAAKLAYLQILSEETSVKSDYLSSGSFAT

p20 (dsRBD of PKR) [2] = biological target: T1, p20 (dsRBD of PKR); experiment: SAXS; remark: listed apart in the source

Binder | binding result (PKR K296R full length) | binding result (p20 (dsRBD of PKR) [1]) | binding result (p20 (dsRBD of PKR) [2])
B1 | binds | binds | –
B2 | binds | – | binds
